B1: SV40 VP1 coat protein (natural protein, simian virus 40 (SV40), UniProt P03087 1-362, looked up)
chain: MAPTKRKGSCPGAAPKKPKEPVQVPKLVIKGGIEVLGVKTGVDSFTEVECFLNPQMGNPDEHQKGLSKSLAAEKQFTDDSPDKEQLPCYSVARIPLPNINEDLTCGNILMWEAVTVKTEVIGVTAMLNLHSGTQKTHENGAGKPIQGSNFHFFAVGGEPLELQGVLANYRTKYPAQTVTPKNATVDSQQMNTDHKAVLDKDNAYPVECWVPDPSKNENTRYFGTYTGGENVPPVLHITNTATTVLLDEQGVGPLCKADSLYVSAVDICGLFTNTSGTQQWKGLPRYFKITLRKRSVKNPYPISFLLSDLINRRTQRVDGQPMIGMSSQVEEVRVYEDTEELPGDPDMIRYIDEFGQTTTRMQ
notes: major capsid protein VP1 of simian virus 40, native protein of the virus (genome from pUCSV40); no residues stated; Stood in the assays as part of viral particles or of VP1 pentamers; the introduction says the capsid is 72 pentamers of VP1; source: SV40 virions purified from SV40-infected or viral genome-transfected CV-1 cells (OptiPrep gradient); input virus in S1 and S2 fractions and whole cell …
B2: SV40 VP2 (natural protein)
chain: MGAALTLLGDLIATVSEAAAATGFSVAEIAAGEAAAAIEVQLASVATVEGLTTSEAIAAIGLIPQAYAVISGAPAAIAGFAALLQTVTGVSAVAQVGYRFFSDWDHKVSTVGLYQQPGMAVDLYRPDDYYDILFPGVQTFVHSVQYLDPRHWGPTLFNAISQAFWRVIQNDIPRLTSQELERRTQRYLRDSLARFLEETTWTVINAPVNWYNSLQDYYSTLSPIRPTMVRQVANREGLQISFGHTYDNIDEADSIQQVTERWEAQSQSPNVQSGEFIEKFEAPGGANQRTAPQWMLPLLLGLYGSVTSALKAYEDGPNKKKRKLSRGSSQKTKGTSASAKARHKRRNRSSRS
notes: minor capsid protein VP2 of simian virus 40, native protein of the virus; contains all of VP3 plus an additional N-terminal extension; Detected with a VP2/VP3 antibody that sees both proteins; source: SV40 virions purified from SV40-infected or viral genome-transfected CV-1 cells (OptiPrep gradient); input virus in S1 and S2 fractions of infected CV-1 cells

Assays:
[1] = molecular target: the molecule itself; assay: sucrose gradient sedimentation; S1 of CV-1 cells transfected with the SV40 genome for 48 hrs; continuous 20-40% sucrose gradient, 49,500 rpm, 50 min, 4°C; fractions blotted for VP1
[2] = molecular target: B1; assay: co-IP; S2 (Triton X-100 extract of P1, ER-localized virus) from CV-1 cells infected with SV40 for 12 hrs; precipitated with VP1 monoclonal antibodies (CC10 and BC11), Protein G-Dynabeads, wash 50 mM Hepes pH 7.5, 500 mM NaCl, 1% Triton X-100; blot with VP2/VP3 antibody; conditions: partners not purified

| Binder | stoichiometry N [1] | binding result [2] |
| --- | --- | --- |
| B1 | 5 |  |
| B2 |  | binds |
